# Data taken from US20220259327A1 (published 2022).
# Where a chain is given by its changes, count along the chain named. Numbers in names are those of the source.
# T1: cyCD19 ECD (cynomolgus, UniProt A0A2K5W8L9 20-292)
# T1 construct: extracellular domain; also called cynomolgus CD19 extracellular domain
# T1 sequence: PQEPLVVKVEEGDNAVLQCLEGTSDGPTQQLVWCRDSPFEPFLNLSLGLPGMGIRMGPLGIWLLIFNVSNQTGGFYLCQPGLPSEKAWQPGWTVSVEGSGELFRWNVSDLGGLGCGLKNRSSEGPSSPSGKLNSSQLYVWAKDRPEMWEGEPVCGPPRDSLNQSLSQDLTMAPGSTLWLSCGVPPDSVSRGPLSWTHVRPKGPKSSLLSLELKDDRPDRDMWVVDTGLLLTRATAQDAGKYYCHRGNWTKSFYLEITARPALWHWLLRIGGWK
# B1: wild-type humanized anti-human CD19 antibody (var.0) (antibody, V domains shown)
# VH: QVQLVQSGAEVKKPGASVKVSCKASGYTFTDYIMHWVRQAPGQGLEWMGYINPYNDGSKYTEKFNGKATMTSDTSISTAYMELSRLRSDDTAVYYCARGTYYYGSALFDYWGQGTTVTVSS
# VL: DIVMTQTPLSLSVTPGQPASISCKSSQSLENSNGNTYLNWYLQKPGQSPQLLIYRVSKRFSGVPDRFSGSGSGTDFTLKISRVEAEDVGVYYCLQLTHVPYTFGQGTKLEIK
# B2: humanized anti-human CD19 antibody var.5 (S27eP), named clone 8B8-018 (antibody, V domains shown)
# VH: B1 VH with N65Q, K67R, A68V
# VL: B1 VL with S32P
# notes: also called variant 5
# B3: humanized anti-human CD19 antibody var.9 (S27eP/N28S) (antibody, V domains shown)
# VH: B1 VH with N65Q, K67R, A68V
# VL: B1 VL with S32P, N33S
# Target: T1, cyCD19 ECD
# Assay: binding to cyCD19 ECD, method not stated
row,Binder,EC50 [µg/mL]
1,B1,0.313
2,B2,0.255
3,B3,0.435
